Experimental data published in paper PMC7145699, “Structural insights into target DNA recognition by R2R3-MYB transcription factors”.

Assays:
WER 12-130 (WER-R2R3) [1] = target: T1, WER 12-130 (WER-R2R3) (Arabidopsis, UniProt Q9SEI0 12-130); assay: ITC; ITC: 150 mM NaCl, 20 mM HEPES pH 7.5, 25 C, 400 uM protein into 20 uM DNA; EMSA: 150 mM NaCl, 20 mM Tris-HCl pH 8.0, on ice 1 h, 0.1 uM DNA, 6% native PAGE 0.5x TBE; details: protein: recombinant; tags: 6xHis-SUMO removed by Ulp1; blunt
T1 sequence: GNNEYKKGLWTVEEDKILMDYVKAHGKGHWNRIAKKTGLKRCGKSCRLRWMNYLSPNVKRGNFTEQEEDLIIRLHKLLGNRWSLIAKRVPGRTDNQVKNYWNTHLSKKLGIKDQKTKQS

WER 12-130 (WER-R2R3) [2] = target: T1, WER 12-130 (WER-R2R3); assay: as above; details: protein: recombinant; tags: 6xHis-SUMO removed by Ulp1; blunt; remark: listed apart in the source
WER 12-130 (WER-R2R3) [3] = target: T1, WER 12-130 (WER-R2R3); assay: crystal structure (2.15 A); ITC: 150 mM NaCl, 20 mM HEPES pH 7.5, 25 C, 400 uM protein into 20 uM DNA; EMSA: 150 mM NaCl, 20 mM Tris-HCl pH 8.0, on ice 1 h, 0.1 uM DNA, 6% native PAGE 0.5x TBE; details: protein: recombinant; tags: 6xHis-SUMO removed by Ulp1; 5' overhang 1 nt at both ends
WER 12-130 (WER-R2R3) [4] = target: T1, WER 12-130 (WER-R2R3); assay: ITC; ITC: 150 mM NaCl, 20 mM HEPES pH 7.5, 25 C, 400 uM protein into 20 uM DNA; EMSA: 150 mM NaCl, 20 mM Tris-HCl pH 8.0, on ice 1 h, 0.1 uM DNA, 6% native PAGE 0.5x TBE; details: protein: recombinant; tags: 6xHis-SUMO removed by Ulp1; blunt; remark: listed apart in the source

B1: C14:G9* (dsDNA)
DNA 1: AAATTCTCCAACCCCATTTTC
DNA 2: GAAAATGGGGTTGGAGAATTT
- binding signal (WER 12-130 (WER-R2R3) [1]): 40 fold decrease in affinity vs N1

B2: GL2 promoter WER target DNA (dsDNA)
DNA 1: AAATTCTCCAACCGCATTTTC
DNA 2: GAAAATGCGGTTGGAGAATTT
- Kd (WER 12-130 (WER-R2R3) [2]): ~51 nM

B3: 5mC12 DNA (AA5mC) (dsDNA)
DNA 1: AAATTCTCCAACCGCATTTTC
DNA 2: GAAAATGCGGTTGGAGAATTT
modifications: 5mC at C12 of strand 1
- Kd (WER 12-130 (WER-R2R3) [2]): 2340 nM

B4: T14:A9* (dsDNA)
DNA 1: AAATTCTCCAACCTCATTTTC
DNA 2: GAAAATGAGGTTGGAGAATTT
- binding result (WER 12-130 (WER-R2R3) [2]): binds

B5: C10:G13* (dsDNA)
DNA 1: AAATTCTCCCACCGCATTTTC
DNA 2: GAAAATGCGGTGGGAGAATTT
- Kd (WER 12-130 (WER-R2R3) [2]): 2000 nM

B6: A14:T9* (dsDNA)
DNA 1: AAATTCTCCAACCACATTTTC
DNA 2: GAAAATGTGGTTGGAGAATTT
- binding result (WER 12-130 (WER-R2R3) [2]): binds

B7: A12:T11* (dsDNA)
DNA 1: AAATTCTCCAAACGCATTTTC
DNA 2: GAAAATGCGTTTGGAGAATTT
- Kd (WER 12-130 (WER-R2R3) [2]): 2590 nM

B8: crystal DNA (dsDNA)
DNA 1: AAATTCTCCAACCGCATTTTC
DNA 2: CGAAAATGCGGTTGGAGAATT
- binding result (WER 12-130 (WER-R2R3) [3]): binds

B9: 6mA10 DNA (6mAAC) (dsDNA)
DNA 1: AAATTCTCCAACCGCATTTTC
DNA 2: GAAAATGCGGTTGGAGAATTT
modifications: 6mA at A10 of strand 1
- binding signal (WER 12-130 (WER-R2R3) [4]): 12 fold decrease in affinity vs N1

B10: 6mA11 DNA (A6mAC) (dsDNA)
DNA 1: AAATTCTCCAACCGCATTTTC
DNA 2: GAAAATGCGGTTGGAGAATTT
modifications: 6mA at A11 of strand 1
- binding signal (WER 12-130 (WER-R2R3) [4]): 5 fold decrease in affinity vs N1

B11: 6mA10,6mA11 DNA (6mA6mAC) (dsDNA)
DNA 1: AAATTCTCCAACCGCATTTTC
DNA 2: GAAAATGCGGTTGGAGAATTT
modifications: 6mA at A10 and A11 of strand 1
- binding signal (WER 12-130 (WER-R2R3) [4]): > 20 fold decrease in affinity vs N1
